Each block holds one compound with its values, some of them ahead of it.
What was measured:
Light stability = type: physicochemical; conditions: forms the base compound and other degradants
Water solubility = type: physicochemical
Oxidation stability = type: physicochemical; conditions: base compound is the major oxidation product

SMILES: COCCOCCOC(=O)OC(C)OC(=O)c1ccc(NC(=O)[C@@H]2N[C@@H](CC(C)(C)C)[C@](C#N)(c3ccc(Cl)cc3F)[C@H]2c2cccc(Cl)c2F)c(OC)c1 (stereo partly drawn) [Compound A, 4-{[(2R, 3S, 5S)-4-(4-chloro-2-fluoro-phenyl)-3-(3-chloro-2-fluoro-phenyl)-4-cyano-5-(2,2-dimethyl-propyl)-pyrrolidine-2-carbonyl]-amino}-3-methoxy-benzoic Acid 1-[2-(2-methoxy-ethoxy)-ethoxycarbonyloxy]-ethyl ester]
- sensitivity to light (Light stability): light sensitive
- solubility in water (Water solubility): relatively more soluble in water
- hydrolysis kinetics in aqueous solutions (aqueous solutions, base compound is the major degradation product): first-order kinetics
- most stable pH range (from stability perspective): 3-5 pH
- sensitivity to oxidation (Oxidation stability): vulnerable to oxidation

- solubility in water (Water solubility): practically water insoluble
SMILES: COc1cc(C(=O)O)ccc1NC(=O)[C@@H]1N[C@@H](CC(C)(C)C)[C@](C#N)(c2ccc(Cl)cc2F)[C@H]1c1cccc(Cl)c1F [base compound, 4-{[(2R,3S,4R,5S)-3-(3-chloro-2-fluoro-phenyl)-4-(4-chloro-2-fluoro-phenyl)-4-cyano-5-(2,2-dimethyl-propyl)-pyrrolidine-2-carbonyl]-amino}-3-methoxy-benzoic acid]
